From the supplement of paper PMC11811203

B1: THAP1; numbered along this chain (parent)
chain: MVQSCSAYGCKNRYDKDKPVSFHKFPLTRPSLCKEWEAAVRRKNFKPTKYSSICSEHFTPDCFKRECNNKLLKENAVPTIFLCTEPHDKKEDLLEPQEQLPPPPLPPPVSQVDAAIGLLMPPLQTPVNLSVFCDHNYTVEDTMHQRKRIHQLEQQVEKLRKKLKTAQQRCRRQERQLEKLKEVVHFQKEKDDVSERGYVILPNDYFEIVEVPA

Variants of: B1
Assay: THAP1 transcriptional activity (GFP+/GFP- enrichment relative to wild-type constructs) (ratio to WT); higher = more THAP1 activity (PSMB5 reporter activation)
Details: with PSMB5 promoter-GFP reporter
Method: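 Deep mutational scan of human THAP1. Site-saturation single amino acid variant library (residues 2-213) was expressed by lentivirus at MOI ~0.3 in THAP1-knockout HEK-293T cells carrying an endogenous PSMB5 promoter-GFP knock-in reporter. Five days post-transduction, BFP+ cells were FACS-sorted into GFP dim and GFP bright populations and variants were counted by Illumina sequencing. Activity is the GFP-bright/GFP-dim read fold change, mean of 2 replicates, divided by the mean fold change of wild-type (synonymous) constructs in the same screen pool; WT = 1.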

Point of comparison: G9P, THAP1 transcriptional activity 0.116. Against it:
- S31D — higher, 1.43
- S31H — higher, 0.565
- L94D — higher, 1.28
- E91W — higher, 0.619
- E91I — higher, 0.999
- E91S — higher, 1.71
- E140G — higher, 2.94
- E140R — higher, 1.3
- Q155Y — higher, 0.71
- Q155I — higher, 0.473
- Q155T — higher, 0.609
- A115M — higher, 0.233
- K89W — higher, 0.592
- K89S — higher, 2.9
- K89Q — higher, 1.32
- D141R — higher, 0.588
- D141W — higher, 0.255
- V156H — higher, 0.201
- V156R — higher, 0.349
- V156T — higher, 0.468
- V156W — higher, 0.284
- V156I — higher, 0.548
- G9M — higher, 0.381
- G9K — higher, 0.4
- L201M — higher, 0.715
- E98Q — higher, 1.69
- E98T — higher, 1.66
- L93N — higher, 1.51
- L93K — higher, 0.898
- L93V — higher, 1.15
- R29E — higher, 0.127
- K158R — higher, 0.941
- K158V — higher, 0.617
- H135I — higher, 0.146
- A166N — higher, 0.382
- A166M — higher, 0.882
- T165L — higher, 0.668
- V139K — higher, 1.41
- A38C — higher, 0.377
- A38R — higher, 1.14
- A38N — higher, 1.08
- A38K — higher, 1.34
- S52K — higher, 0.641
- L105W — higher, 0.491
- L105H — higher, 1.54
- M120K — higher, 1.37
- M120Q — higher, 1.57
- K46G — lower, 0.0852
- K46L — higher, 0.23
- S130L — higher, 0.324
- F58W — higher, 0.143
- F58A — lower, 0.0948
- F58Q — lower, 0.0792
- Y137I — lower, 0.109
- V40F — higher, 0.119
- V40Y — lower, 0.101
- V40L — higher, 0.867
- K162W — higher, 0.206
- K162C — higher, 0.329
- Q168K — higher, 0.394
- P108G — higher, 1.24
- P108S — higher, 1.65
- P108H — higher, 1.01
- P108V — higher, 2.03
- P108L — higher, 1.93
- K43Q — higher, 1.02
- K43F — higher, 0.153
- E178V — higher, 0.568
- R42H — lower, 0.105
- L100I — higher, 1.56
- L100Y — higher, 0.692
- C54L — lower, 0.0556
- Q124V — higher, 0.643
- Q124F — higher, 0.463
- R175G — higher, 0.388
- E37C — higher, 0.963
- E37W — lower, 0.0974
- V183Y — higher, 0.941
- V183L — higher, 0.753
- T59G — higher, 0.413
- E174C — higher, 1.18
- E174F — higher, 0.564
- H185W — higher, 0.528
- H185S — higher, 1.02
- H185V — higher, 0.579
- D113Y — higher, 0.229
- Y14L — higher, 0.146
- Y14R — higher, 0.36
- P30V — higher, 0.418
- P30Y — higher, 0.21
- P30G — higher, 0.282
- C33T — higher, 0.142
- T138S — higher, 1.07
- T138Q — higher, 0.224
- T138K — higher, 0.191
- F63W — higher, 0.473
- I149E — higher, 0.225
- A7Q — lower, 0.1
- A7E — higher, 0.154
- C83F — higher, 1.21
- C83H — higher, 2.25
- P78R — higher, 0.156
- P78A — higher, 0.526
- D192E — higher, 0.835
- S110T — higher, 0.793
- V20S — lower, 0.0781
- V20Y — higher, 0.312
- V20L — higher, 0.297
- F22R — lower, 0.0771
- P96H — higher, 0.971
- T125C — higher, 0.57
- L72H — higher, 0.134
- L72M — lower, 0.106
- P106E — higher, 2.61
- P106V — higher, 1.39
- P106S — higher, 2.1
- N68D — lower, 0.0906
- N68A — lower, 0.103
- N68S — higher, 0.192
- N203S — higher, 1.54
- N203T — higher, 1.15
- D17I — lower, 0.0905
- S4T — higher, 0.966
- A39W — higher, 0.289
- A39F — higher, 0.283
- A39N — higher, 0.865
- A39Y — higher, 0.413
- K90L — higher, 0.82
- K90G — higher, 1.6
- V199M — higher, 0.728
- V199Q — higher, 0.623
- N44R — higher, 0.178
- P122I — higher, 0.39
- W36I — lower, 0.0405
- W36M — higher, 0.182
- W36A — lower, 0.0783
- D61C — higher, 0.198
- D61Y — higher, 0.127
- E157D — higher, 0.766
- K49Q — higher, 0.317
- D15K — higher, 0.704
- D15C — higher, 0.853
- R65E — higher, 0.629
- P101I — higher, 1.27
- F25L — higher, 0.117
- F25K — lower, 0.0509
- F25I — higher, 0.145
- F25Y — higher, 0.203
- R169G — higher, 0.181
- C67K — higher, 0.472
- R196T — higher, 1.47
- R196H — higher, 1.21
- N128Y — higher, 0.306
- N128I — higher, 0.201
- P107W — higher, 0.215
- L159T — higher, 0.209
- L159Y — higher, 0.707
- V2K — lower, 0.0614
- V2Q — higher, 0.178
- R171I — higher, 0.359
- R171V — higher, 0.142
- R171M — higher, 0.36
- R171H — higher, 0.344
- R171D — higher, 0.228
- Q151L — higher, 0.804
- C62S — higher, 1.72
